Legend:
Format in all cases: biochemical
[1] = Autoactivation of MASP fragments followed on reducing SDS-PAGE; conditions: after renaturation / purification
Excerpt: The catalytic region of MASP-1 and MASP-2, consisting of the two complement control protein modules and the serine protease domain (CCP1-CCP2-SP) (FIG. 3.) was expressed in E. coli BL-21 cells using the pET-17b expression vector. In the case of MASP-2, truncated fragments of the catalytic region (the serine protease domain with one CCP module and the serine protease domain alone) (FIG. 3) were also expressed in the same expression system. Since the recombinant proteins accumulated as inclusion bodies inside the bacterial cells, renaturation procedures were needed to restore the native, folded structure (see Materials and Methods). The renatured recombinant proteins were purified by ion exchange chromatography on Q-Sepharose Fast Flow and Mono-S columns. The renaturation and the purification procedures were followed by SDS-PAGE and the purified proteins were subjected to N-terminal sequencing. Before renaturation the inclusion body proteins yielded single bands on the reducing SDS-PAGE corresponding to the zymogen form of the enzymes. […] The MASP-1 CCP1-CCP2-SP fragment co-purified with a minor contaminant, which migrated on SDS-PAGE as a band of 24 kDa under reducing and at 39 kDa under non-reducing conditions. […] The cleavage occurred at the Arg^504-Asp^505 bond removing the histidine from the catalytic triad and thus causing the loss of its enzymatic activity. […]

[2] = target: T1, C1-inhibitor (Homo sapiens, UniProt P05155); experiment: Rate of SDS stable complex formation of 125I-labelled MASP fragments with C1-inhibitor
T1 construct: Purification of C1-inh and Alpha-2-Macroglobulin; from tissue
T1 sequence (P05155 23-500): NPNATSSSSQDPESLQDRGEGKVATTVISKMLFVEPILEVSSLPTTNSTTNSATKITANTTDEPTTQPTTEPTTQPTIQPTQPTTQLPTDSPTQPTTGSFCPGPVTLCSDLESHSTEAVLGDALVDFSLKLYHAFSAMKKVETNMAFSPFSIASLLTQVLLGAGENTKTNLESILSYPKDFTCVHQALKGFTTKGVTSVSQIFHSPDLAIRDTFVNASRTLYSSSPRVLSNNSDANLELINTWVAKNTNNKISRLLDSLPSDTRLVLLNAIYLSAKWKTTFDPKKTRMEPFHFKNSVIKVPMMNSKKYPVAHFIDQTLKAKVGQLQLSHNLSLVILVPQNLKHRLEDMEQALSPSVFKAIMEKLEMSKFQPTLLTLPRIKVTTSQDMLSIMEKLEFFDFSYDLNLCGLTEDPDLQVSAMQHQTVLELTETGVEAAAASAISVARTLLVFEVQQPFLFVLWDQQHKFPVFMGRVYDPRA
Method: To assess the rate of SDS stable complex formation between the MASP-1 and MASP-2 CCP1-CCP2-SP fragments and C1-inhibitor, the ^125I-labelled MASP fragments at concentrations ranging between 30-100 nM were incubated with 100-350 nM C1-inhibitor at 37° C. in 20 mM HEPES, 140 mM NaCl, pH 7.4 for 40 minutes. Typically 11-13 samples were taken at varying time periods. The reactions were stopped by reducing sample buffer containing 0.125 M Tris, 4.8% SDS, 8 M urea 20% glycerol, 720 mM mercaptoethanol, 0.02% bromophenol blue, pH6.8. The samples were further incubated at 37° C. for 30 minutes and run on reducing SDS-PAGE. Cleavages rates were visualized by means of autoradiography and the diminution of the reacted MASP chain was quantified using a GEL DOC 1000 instrument and Molecular Analyst Software for densitometric calculations (Bio-Rad, Hercules, Calif., USA). The kinetic constants were calculated assuming irreversible inhibition proceeded by reversible enzyme-inhibitor complex formation. Using steady-state approximation and neglecting the starting enzyme concentration compared to the starting inhibitor concentration ([I0]>>[E0]) the data was regressed on the following equation using non-linear regression methods: [E]=[E0]exp(−kobst); kobs=k2[I0]/(Ki+[I0]), where kobs is the observed pseudo-first order rate of reaction, k2 is the rate of irreversible enzyme-inhibitor complex formation and Ki is the inhibitory constant.

[3] = target: T2, live C3 (Homo sapiens, UniProt P01024); experiment: Cleavage of live C3 by MASP fragments, SDS-PAGE densitometry; conditions: from kcat/KM values
T2 construct: was isolated from fresh human serum; from tissue; host or cells: fresh human serum
T2 sequence (P01024 672-1663 limits assumed): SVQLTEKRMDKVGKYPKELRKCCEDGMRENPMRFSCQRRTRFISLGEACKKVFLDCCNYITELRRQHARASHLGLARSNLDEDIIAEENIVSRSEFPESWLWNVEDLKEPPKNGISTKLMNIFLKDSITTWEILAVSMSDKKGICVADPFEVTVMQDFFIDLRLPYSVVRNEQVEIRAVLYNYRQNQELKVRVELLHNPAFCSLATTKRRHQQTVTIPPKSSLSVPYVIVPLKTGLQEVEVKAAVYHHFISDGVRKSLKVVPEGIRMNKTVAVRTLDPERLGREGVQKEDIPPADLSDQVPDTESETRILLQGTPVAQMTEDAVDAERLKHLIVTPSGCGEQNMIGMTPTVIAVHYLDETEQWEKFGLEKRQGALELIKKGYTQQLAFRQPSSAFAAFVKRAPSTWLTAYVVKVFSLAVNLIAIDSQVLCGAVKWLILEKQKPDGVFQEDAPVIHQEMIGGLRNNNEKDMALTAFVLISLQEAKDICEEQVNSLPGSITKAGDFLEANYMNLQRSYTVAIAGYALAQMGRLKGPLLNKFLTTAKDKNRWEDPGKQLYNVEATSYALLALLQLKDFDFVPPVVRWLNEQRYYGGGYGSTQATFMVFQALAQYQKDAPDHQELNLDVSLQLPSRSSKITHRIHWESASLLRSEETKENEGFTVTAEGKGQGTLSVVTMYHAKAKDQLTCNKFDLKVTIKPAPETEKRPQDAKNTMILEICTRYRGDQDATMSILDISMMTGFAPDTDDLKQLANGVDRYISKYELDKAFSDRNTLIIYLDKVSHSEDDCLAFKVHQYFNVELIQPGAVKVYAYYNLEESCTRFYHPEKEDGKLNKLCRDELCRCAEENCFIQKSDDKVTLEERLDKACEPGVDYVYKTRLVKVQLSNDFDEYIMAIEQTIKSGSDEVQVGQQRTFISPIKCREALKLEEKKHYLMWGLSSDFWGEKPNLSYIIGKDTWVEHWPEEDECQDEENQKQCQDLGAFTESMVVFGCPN
T2 sequence (P01024 23-667 partner limits assumed): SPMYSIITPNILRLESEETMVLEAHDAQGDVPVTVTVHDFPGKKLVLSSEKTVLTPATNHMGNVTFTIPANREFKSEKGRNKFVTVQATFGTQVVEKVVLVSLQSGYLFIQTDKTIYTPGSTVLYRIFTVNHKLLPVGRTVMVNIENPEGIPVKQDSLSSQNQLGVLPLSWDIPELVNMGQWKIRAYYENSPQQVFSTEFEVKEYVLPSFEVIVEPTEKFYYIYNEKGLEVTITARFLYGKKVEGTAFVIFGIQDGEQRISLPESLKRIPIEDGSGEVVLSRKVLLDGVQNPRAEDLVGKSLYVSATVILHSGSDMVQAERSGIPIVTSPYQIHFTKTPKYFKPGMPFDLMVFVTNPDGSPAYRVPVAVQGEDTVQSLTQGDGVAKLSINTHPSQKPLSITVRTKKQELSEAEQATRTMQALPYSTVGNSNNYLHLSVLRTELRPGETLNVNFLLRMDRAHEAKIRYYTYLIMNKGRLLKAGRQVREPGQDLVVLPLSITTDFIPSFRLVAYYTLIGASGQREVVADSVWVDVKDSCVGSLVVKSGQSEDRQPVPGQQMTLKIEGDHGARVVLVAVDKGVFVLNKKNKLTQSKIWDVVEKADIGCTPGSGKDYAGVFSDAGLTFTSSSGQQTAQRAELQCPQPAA
Method: C2, C3, C3(NH3), C4 cleavage—Serial dilutions of MASP-1 and MASP-2 fragments ranging between concentrations of 1 μM and 10 pM were incubated at 37° C. in 20 mM HEPES, 140 mM NaCl, pH 7.4 with C2, C3, C3(NH3) or C4 at typical concentrations of 0.5-1 μM. The cleavage was followed by SDS-PAGE under reducing conditions. Desirable concentrations of the MASP fragments for further detailed kinetic analysis were chosen to be where half of the protein substrates were hydrolyzed during the first 20 minutes of incubation. The protein substrates C2, C3, C3(NH3) or C4 were then incubated with the selected concentrations of the MASP fragments at 37° C. in 20 mM HEPES, 140 mM NaCl, pH 7.4. Typically 11-13 samples were taken at varying time periods but always within 50 minutes from the beginning of the reaction. Cleavages rates were quantified by measuring the diminution of the cleaved chain visualized by Coomassie stained SDS-PAGs using a GEL DOC 1000 instrument and Molecular Analyst Software for densitometric calculations (Bio-Rad, Hercules, Calif., USA). The reactions were assumed to be of the Michaelis-Menten type. In the case of C3 and C3(NH3) cleavage a further reasonable assumption of KM>>[substrate] was made. […]

B1: MASP-1γB: E. coli-expressed, refolded human MASP-1 CCP1-CCP2-SP fragment, Gly298 to Asn699 with N-terminal Ala-Ser-Met-Thr tag (protein)
chain 1: ASMTGNECPELQPPVHGKIEPSQAKYFFKDQVLVSCDTGYKVLKDNVEMDTFQIECLKDGTWSNKIPTCKIVDCRAPGELEHGLITFSTRNNLTTYKSEIKYSCQEPYYKMLNNNTGIYTCSAQGVWMNKVLGRSLPTCLPVCGLPKFSRKLMAR
chain 2: IFNGRPAQKGTTPWIAMLSHLNGQPFCGGSLLGSSWIVTAAHCLHQSLDPEDPTLRDSDLLSPSDFKIILGKHWRLRSDENEQHLGVKHTTLHPQYDPNTFENDVALVELLESPVLNAFVMPICLPEGPQQEGAMVIVSGWGKQFLQRFPETLMEIEIPIVDHSTCQKAYAPLKKKVTRDMICAGEKEGGKDACAGDSGGPMVTLNRERGQWYLVGTVSWGDDCGKKDRYGVYSYIHHNKDWIQRVTGVRN
With B1 the “autoactivation, in words” value [1] was “fully activated”, the “kobs with C1-inhibitor, fold less than for the MASP-2 CCP1-CCP2-SP fragment” value [2] was 5 fold and the “kobs, pseudo-first order rate of reaction with C1-inh” value ([2]; [C1-inh] = 350 nM, 37° C., pH 7.4) was 0.0014 s⁻¹. For the same molecule, the “proteolytic action on 'live' C3 relative to 'dead' C3 (fold less)” value [3] was “about 20 fold”.

From patent US8173397B2, “Folded recombinant catalytic fragments of multidomain serine proteases, preparation and uses thereof” (TargetEx Kft., priority 2002, dated 2012)
